We go through 40 sequences from the nanobody polyreactivity screen of Harvey et al. (2022).

The data set is described as follows: yeast display, Sf9 membrane polyspecificity reagent, FACS + sequencing; frameworks hold sequencing errors. In short, it runs like this: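 Galactose induction of a Saccharomyces cerevisiae BJ5465 synthetic nanobody display library ran 36–48 hours. The cells were then stained for 1 hour at 4 °C with 10% biotinylated, detergent-solubilized Sf9 membrane reagent, pulled down on streptavidin microbeads and FACS-sorted into low and high (top ~1%) gates on expression and reagent-binding fluorescence. Labels for polyreactivity follow the gate of origin.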
For “QVQLVESGGGLVQAGGSLRLSCAASGSIFLGNAMGWSRQAPGKERELVAAISSITGRTYYADSVKGRFTISRDNAKNTVYLQMNSLKPEDTAVYYCNKVKRSFIVNTDDYWGQGTQVTVSS”, the “polyreactivity (PSR sort gate)” value is reported as “high polyreactivity”.
“QVQLVESGGGLVQAGGSLRLSCAASGSIFLGNAMGWYRQAPGKERELVAAITSRGGRTYYADSVKGRFTISRDNAKNTVYLLMNSLKPEDTAVYYFAVLGFGALDFDSWGQGTEVTVSS”: the “polyreactivity (PSR sort gate)” value is given as “high polyreactivity”.
For “QVQLVESGGGLVQAGGSLRLSCAASGSIFLGNAMGWYSPAPGKERELVAAISYSGGSTYYADSVKGRFTISRDNAKNTVYLQMNSLKPEDTDVYYCAADRSSQFDLDYWGQGTRVTVSS”, the “polyreactivity (PSR sort gate)” value is on record as “low polyreactivity”.
Under “QVQLVESGGGLVQAGGSLRLSCAASGSIFLGSVMVWYRQAPGKERELVATITGNGDGTYYADSVKGRFTISRDKAKNTVYLQMNSLKPADTAVYYCAADRSGPGYDYWGQGTQVTVSS” stands “low polyreactivity”.
Take “QVQLVESGGGLVQAGGSLRLSCAASGSIFLKYTMGWYRQAPGKERELVAAITSGGTTNYADSVKGRFTISRDNAKNTVYLQMNSLKPEDTAVYYCARDSYQLGLIRDPLEYDYWGQGTQVTVSS”: the “polyreactivity (PSR sort gate)” value is reported as “low polyreactivity”.
Then “QVQLVESGGGLVQAGGSLRLSCAASGSIFLKYVMGWYRQATGKEMELVAAISSAGGTYYADSVKGRFTISRDNEKYTVYLQMICLKPEDTAVYYCGRRPYRGSYAYDYWGQGSQVTVSS”, with “low polyreactivity”.
Then “QVQLVESGGGLVQAGGSLRLSCAASGSIFLLNAMGWYRQAPGKERELVAVISSGTGSTYYADSVKGRFTISRDTAKNTVYLQMNSLKPEDTAVYYCAAERDAVLFFVGPYYITLDYDYWGQGTQVTVSS”, with “low polyreactivity”.
For the sequence “QVQLVESGGGLVQAGGSLRLSCAASGSIFLNNAMGWYSQAPGKERELVAAITRNVGSTYYADSVKGRFTISRDNAKNTVYLQMNSMKPEATAVYYCAADRRRRYDYWGQGTQVTVSS”, the “polyreactivity (PSR sort gate)” value was “low polyreactivity”.
As to “QVQLVESGGGLVQAGGSLRLSCAASGSIFLPYAMGWYRQAPGKERELVATIRGRGGSTYYADSVKGRFTISRDNAKITVYLLMNSPKPEDTAVYYCAAKNGDRYARGYWGQGTQVTVSS”, the “polyreactivity (PSR sort gate)” value was “high polyreactivity”.
For “QVQLVESGGGLVQAGGSLRLSCAASGSIFLQYAMGWYRQAPGKERELVAAISWSGGSTYYADSVKGRFTISRDNAKNTVYVQMNSLKPEDTAVYYCAAPITPYRHYRMDYWGQGTQVTVSS”, the “polyreactivity (PSR sort gate)” value is “low polyreactivity”.
For the sequence “QVQLVESGGGLVQAGGSLRLSCAASGSIFLQYTMGWYRQAPGKERELVAAITESDGSTYYADSVKGRFTISRDNAKNTVYLQMNSLKPEDTAVYYCAADVVYFKYWDKYDYWGQGTQVTVSS”, the “polyreactivity (PSR sort gate)” value is “low polyreactivity”.
Under “QVQLVESGGGLVQAGGSLRLSCAASGSIFLRNAMGWYRQAPGKERELVAAITNSSGSTYYADSVKGRFTISRDNAKNTVYLQMNSLKPEDTAVYYCAATSRSSRRYYYWGQGTQVTVSS” stands “high polyreactivity”.
As for “QVQLVESGGGLVQAGGSLRLSCAASGSIFLRYAMGWYRQAPGKERELVAAITTGGGSTYYADSVKGRFTISRDNAKNTDYLQMNSLKPVDTAVYYCAKRAQYHWRGRDDYSYYYWGQGTQVTVSS”, the “polyreactivity (PSR sort gate)” value was “low polyreactivity”.
Then “QVQLVESGGGLVQAGGSLRLSCAASGSIFLSNAMGWYRQAPGKEREMVAIRKSTGSTYYADSVKGRFTISRDNAKNTVYLQMYSLKPEDTAVYYCNAGGWNAYRYRAYDYGGQGTQVTVSS”, with “high polyreactivity”; and “QVQLVESGGGLVQAGGSLRLSCAASGSIFLVNAKGCYRQAPGKARELVAAITYGGDSTYYADSVKGRFTISRDNAKNTVYLQMNSLKPEDTAVYYCAADAWVGWHDEYDYWGQGTQVTVSS”, with “low polyreactivity”.
Under “QVQLVESGGGLVQAGGSLRLSCAASGSIFLVNAMGWSRQAPGKERELVASITWRGGRTYYAASVKGRFTISRDNAKNTVYLQMNSLKPEDTAVYYCAARNYRTGERLRYDYWGQGTQVTVSS” stands “low polyreactivity”.
“QVQLVESGGGLVQAGGSLRLSCAASGSIFLVNAMGWYRQAPGKERELVAAIRGSGGSTYYADSVKGRFTISRDNAKNTVYLQMNSLKPEDTAVYYCAADIWRLAYDYWGQGTQVTVSS”: the “polyreactivity (PSR sort gate)” value is “low polyreactivity”.
Under “QVQLVESGGGLVQAGGSLRLSCAASGSIFLWNAMGGYRQAPGKERDLVAAISSSGGSTYYADSVKGRFTISRDNAKNTVYLQMNSLKPEDTAVYYCAAVSRSYYNSYNYWGQGTQVTVSS” stands “high polyreactivity”; under “QVQLVESGGGLVQAGGSLRLSCAASGSIFLWNAMGWYRQAPGKERELVAAISSSGGSTYYADSVKGRFTISRDNAKNTVYLQMNSLKPEDTAVYYCAAVSRSYYNSYNYWGQGTQVTVSS”, “high polyreactivity”.
For the sequence “QVQLVESGGGLVQAGGSLRLSCAASGSIFLWYAMGWYRQAPGKERELVAAIDWSGGSTYYADSVKGRFTISRDNAKNTVYLQMNSLKPEDTAGYDCAAEWGNWYWWDYGYDYYYWGQGTQVTVSS”, the “polyreactivity (PSR sort gate)” value is “high polyreactivity”.
As for “QVQLVESGGGLVQAGGSLRLSCAASGSIFLWYTMGWYRQAPGKERELVAAISRTGGSTYYADSVKGRFTISRDNAKNTVYLQMNSLKPEETAVYYCAASFRPRSSRDYYYGYGYWGQGTQVTVSS”, the “polyreactivity (PSR sort gate)” value is given as “high polyreactivity”.
Under “QVQLVESGGGLVQAGGSLRLSCAASGSIFLYNAMGWYIQAPGKERELVAAISRSSTSTYYADSVKGRFTISRDNAKNTVYLQMNSLKPEDTAVYYCAARGRVTYWGQGTQVTVSS” stands “high polyreactivity”.
Then “QVQLVESGGGLVQAGGSLRLSCAASGSIFLYNDMGWYRQAPGKERELVAAITSTGNTNYADSVKGRFTISRDNAKNTVYLQMNSLNRKIPRSITALNVSCTSVVVGYDYWGQGTQVTVSS”, with “low polyreactivity”; and “QVQLVESGGGLVQAGGSLRLSCAASGSIFLYNTMGWYRQAPGKERELVAAISFSGVTTYYADSVKGRFTISRDNAKNTVYLQMNSLKPEDTAVYYCNKYLWKFTNSPLGDYYWGQGTQVTVSS”, with “high polyreactivity”.
Take “QVQLVESGGGLVQAGGSLRLSCAASGSIFLYNTMGWYRQAPGKERELVAAITSGGNTNYADSVKGRFTISRDNAKNTVYLQMNSLKPEDTAVYYCNVDLKAWLPDGGSVDYWGQGTQVTVSS”: the “polyreactivity (PSR sort gate)” value is listed as “low polyreactivity”.
For the sequence “QVQLVESGGGLVQAGGSLRLSCAASGSIFLYNTMGWYRQAPGKERELVAAITYSGGSTYYADSVKGRFTISRDYAKNTVYLQMNSLKPEDTAVDYCNARHYSAYYSWGQGTQVTVSS”, the “polyreactivity (PSR sort gate)” value was “high polyreactivity”.
As to “QVQLVESGGGLVQAGGSLRLSCAASGSIFLYYAMGWYRQAPGKERELVAAISGRAGSTYYADSVKGRFTISRDNAKNTVYLQMNSLKPEDTSVYYCAAGYWHGYPGFKYYWGQGTQVTVSS”, the “polyreactivity (PSR sort gate)” value was “low polyreactivity”.
As for “QVQLVESGGGLVQAGGSLRLSCAASGSIFLYYVMGWYRQAPGKERELVAAITWDGGSTYYADSVKGRFTISRDNAKNTVYLQMNSLKPEDTAVYYCNADTIVAWFDIFEEMDSWGQGTQVTVSS”, the “polyreactivity (PSR sort gate)” value is reported as “low polyreactivity”.
Take “QVQLVESGGGLVQAGGSLRLSCAASGSIFNANAMGWYRPAPGKERELVAGIRSGSSTNYADSVKGRFTISRDNAKNTVYLQMNSLKPEDTAVYYCATEGYWVYGFDDEYWGQGTQVTVSS”: the “polyreactivity (PSR sort gate)” value is recorded as “low polyreactivity”.
Then “QVQLVESGGGLVQAGGSLRLSCAASGSIFNANAMGWYRQAPAKERELVAAITPSDGDTYYADSVKGRFTISRDNAKNTVYLQMNSLKPEDTAVYYCAAEDDPGEYEYWGQGTQVTVSS”, with “low polyreactivity”.
With “QVQLVESGGGLVQAGGSLRLSCAASGSIFNANTMGWYRQAPGKERELVAVITSGGSTYYADSVKGRFTISRDNAKNTVYLQMNSLKPEDTAVYYCAKDPGPYDYDYWGQGTQVTVSS”, the “polyreactivity (PSR sort gate)” value is on record as “low polyreactivity”.
Turning to “QVQLVESGGGLVQAGGSLRLSCAASGSIFNDNVMGWYRQAPGKERELVAGISRSGTRTYYADSVKGRFTISRDNAKNTVYLQMNSLKPEDTAVYYCAAAYGQARRYNGSQYGSWGQGTQVTVSS”, the “polyreactivity (PSR sort gate)” value is “high polyreactivity”.
As for “QVQLVESGGGLVQAGGSLRLSCAASGSIFNGYALGWYRQAPGKERELVAAISSGGCTNYADSVKGSFTISRDNAKNTVYLQMNSLKPEDTAVYYCDKDYGYYWPWHYIASYEYDYWGQGTQVTVSS”, the “polyreactivity (PSR sort gate)” value was “low polyreactivity”.
Take “QVQLVESGGGLVQAGGSLRLSCAASGSIFNGYVMGLYRQAPGKERELVAAISSGGRTYYADSVKGRFTISRDNAKNTVYLQMNSLKPEDTAVYYCAADIWYFDYDYWGQGTQVTVSS”: the “polyreactivity (PSR sort gate)” value is recorded as “high polyreactivity”.
Under “QVQLVESGGGLVQAGGSLRLSCAASGSIFNGYVMGWYTQAPGKERELVAANSRSGGRTYYADSVKGRFTISRDNAKNTVYLQMNSLKPEDTAVYYCAARNYLYAIMGKWLDYNYWGQGTQVTVSS” stands “high polyreactivity”; under “QVQLVESGGGLVQAGGSLRLSCAASGSIFNINAMGWYRQAPGKERELVATITSGGTASYADSVKGRFTISRDNAKNTVYLQMNSLKPEDTAVYDCNAEMYPIVKAGRQHPRRYDYWGQGTQVTVSS”, “low polyreactivity”; under “QVQLVESGGGLVQAGGSLRLSCAASGSIFNIYAMGWDRQAPGKERELVAAIRWTGGSTYYADSVKGRFTISRDTAKNTVDLQMTSLKPEATAVYYCAARTSRGGHYYWGPGTQVTVSS”, “high polyreactivity”.
On to “QVQLVESGGGLVQAGGSLRLSCAASGSIFNIYAMGWYRQAPGKERELVATITGIADSTYYADSVKGRFTISRDNAKNTVYLQMNSLKPEDTAVYFCAAKYGSRYTTGQTRRDYYSWGQGTQVTVSS”, for which the “polyreactivity (PSR sort gate)” value is reported as “low polyreactivity”.
Under “QVQLVESGGGLVQAGGSLRLSCAASGSIFNIYAMGWYRQAPGKERELVATITGIADSTYYADSVKGRFTISRDNAKNTVYLQMNSLKPEDTAVYYCNADPSGVFFYSLEFDYWGQGTQVTVSS” stands “low polyreactivity”; under “QVQLVESGGGLVQAGGSLRLSCAASGSIFNKNVMGWYRQAPGKERELVAAITSGGGSTYYADSVKGRFTISRDNAKNTVYLQMNSLKPEDTAVYYCAAGRGLYEYNYWGQGTQVTVSS”, “high polyreactivity”.
